Non-standard residues stand in square brackets, D forms with d. No end group written: not given here. Sar = CNCC(=O)O
T1: rat angiotensin 2 type 1 receptor (rat, UniProt P25095 1-359)
T1 sequence (looked up): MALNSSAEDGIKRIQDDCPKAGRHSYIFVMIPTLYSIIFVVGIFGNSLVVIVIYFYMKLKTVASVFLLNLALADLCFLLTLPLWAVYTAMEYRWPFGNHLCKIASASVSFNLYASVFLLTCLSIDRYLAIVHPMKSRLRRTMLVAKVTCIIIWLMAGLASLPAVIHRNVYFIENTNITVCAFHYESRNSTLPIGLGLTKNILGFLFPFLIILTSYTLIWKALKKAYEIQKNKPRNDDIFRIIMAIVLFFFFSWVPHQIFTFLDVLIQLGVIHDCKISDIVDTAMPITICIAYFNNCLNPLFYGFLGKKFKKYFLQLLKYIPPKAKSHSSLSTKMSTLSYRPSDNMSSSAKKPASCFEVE

T2: human angiotensin 2 type 1 receptor (human, UniProt P30556 1-359)
T2 sequence (looked up): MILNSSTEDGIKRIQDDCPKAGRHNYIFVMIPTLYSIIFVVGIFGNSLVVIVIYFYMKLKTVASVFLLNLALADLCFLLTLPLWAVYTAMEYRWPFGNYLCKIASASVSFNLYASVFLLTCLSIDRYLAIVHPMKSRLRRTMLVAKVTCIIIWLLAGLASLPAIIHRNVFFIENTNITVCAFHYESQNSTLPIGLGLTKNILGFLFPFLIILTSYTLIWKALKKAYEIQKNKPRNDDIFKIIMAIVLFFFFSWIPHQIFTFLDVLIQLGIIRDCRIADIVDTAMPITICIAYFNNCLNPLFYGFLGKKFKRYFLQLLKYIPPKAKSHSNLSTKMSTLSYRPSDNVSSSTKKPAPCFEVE


Experiments:
[1] = molecular target: T1, rat angiotensin 2 type 1 receptor; experiment: cell-based or functional assay
[2] = molecular target: T2, human angiotensin 2 type 1 receptor; experiment: cell-based or functional assay

| Binder | IP One EC50 (M) [1] | b-arrestin2 EC50 [1] | b-arrestin2 Max (%) [1] | IP One EC50 (M) [2] | b-arrestin2 EC50 [2] | b-arrestin2 Max (%) [2] | IP One Max (%) [1] | IP One EC50 [1] |
| --- | --- | --- | --- | --- | --- | --- | --- | --- |
| ARVYIHPA (NMAla (N-methyl-L-alanine) at 1) [SEQ ID NO: 34] | > 1e-05 M | 32 nM | 81.7% | > 1e-05 M | 25 nM | 53% |  |  |
| VYIHPF (cyclic, as printed: Cyclo(...)) [SEQ ID NO: 38] |  | 2500 nM | 66.4% | > 1e-05 M | 680 nM | 43.1% | 20.8% |  |
| [Sar]RVYFHP-NH2 (N-terminus assumed; SMILES CNCC(=O)N[C@@H](CCCNC(=N)N)C(=O)N[C@H](C(=O)N[C@@H](Cc1ccc(O)cc1)C(=O)N[C@@H](Cc1ccccc1)C(=O)N[C@@H](Cc1c[nH]cn1)C(=O)N1CCC[C@H]1C(N)=O)C(C)C) [SEQ ID NO: 41] | > 1e-05 M | 660 nM | 53.1% | > 1e-05 M | 1600 nM | 30.1% |  |  |
| ARVYVHPA (NMAla (N-methyl-L-alanine) at 1) [SEQ ID NO: 33] | > 1e-05 M | 31 nM | 86.9% | > 1e-05 M |  | 54.9% |  |  |
| FVYIHPFVYIHPFVYIHP (cyclic, as printed: Cyclo(...)) [SEQ ID NO: 37] |  | 1900 nM | 60.7% | > 1e-05 M |  | 62.3% | 14.7% |  |
| RVYIHPRVYIHPRVYIHP (cyclic, as printed: Cyclo(...)) [SEQ ID NO: 36] |  | 1900 nM | 32.8% | > 1e-05 M | 1200 nM | 39.5% | 19.2% | 100 nM |
| DRVYIHPA [SEQ ID NO: 25] |  |  | 77% |  |  | 57.9% | 14.1% |  |
| GRVYIHPA (Me2G (N,N-dimethylglycine) at 1) [SEQ ID NO: 32] |  |  | 80.2% |  |  | 55.6% | 6.8% |  |
| GRVYVHPA (Me2G (N,N-dimethylglycine) at 1) [SEQ ID NO: 31] |  |  | 75.9% |  | 100 nM | 58.1% | 6.2% | 13 nM |
| [Sar]RVYHHP-NH2 (N-terminus assumed; SMILES CNCC(=O)N[C@@H](CCCNC(=N)N)C(=O)N[C@H](C(=O)N[C@@H](Cc1ccc(O)cc1)C(=O)N[C@@H](Cc1c[nH]cn1)C(=O)N[C@@H](Cc1c[nH]cn1)C(=O)N1CCC[C@H]1C(N)=O)C(C)C) [SEQ ID NO: 42] | > 1e-05 M | 270 nM | 74.9% | > 1e-05 M | 630 nM | 46.4% |  |  |
| [Sar]RVYEHP-NH2 (N-terminus assumed; SMILES CNCC(=O)N[C@@H](CCCNC(=N)N)C(=O)N[C@H](C(=O)N[C@@H](Cc1ccc(O)cc1)C(=O)N[C@@H](CCC(=O)O)C(=O)N[C@@H](Cc1c[nH]cn1)C(=O)N1CCC[C@H]1C(N)=O)C(C)C) [SEQ ID NO: 40] | > 1e-05 M | 31 nM | 87.9% | > 1e-05 M | 95 nM | 53.2% |  |  |
| [Sar]RVYKHP-NH2 (N-terminus assumed; SMILES CNCC(=O)N[C@@H](CCCNC(=N)N)C(=O)N[C@H](C(=O)N[C@@H](Cc1ccc(O)cc1)C(=O)N[C@@H](CCCCN)C(=O)N[C@@H](Cc1c[nH]cn1)C(=O)N1CCC[C@H]1C(N)=O)C(C)C) [SEQ ID NO: 43] |  | 910 nM | 64.8% | > 1e-05 M | 2100 nM | 42.7% | 17.9% | 260 nM |

Further lines, results first:

| IP One EC50 (M) [1] | b-arrestin2 EC50 [1] | b-arrestin2 Max (%) [1] | IP One EC50 (M) [2] | b-arrestin2 EC50 [2] | b-arrestin2 Max (%) [2] | IP One Max (%) [1] | IP One EC50 [1] | Binder |
| --- | --- | --- | --- | --- | --- | --- | --- | --- |
|  | 440 nM | 83.8% |  | 1400 nM | 45.9% | 8% | 300 nM | XRVYYHP (Sar (sarcosine) at 1) [SEQ ID NO: 52] |
| > 1e-05 M | 630 nM | 52.9% | > 1e-05 M | 1000 nM | 72.7% |  |  | [Sar]KVYIHP[dA]-OH (N-terminus assumed; SMILES CC[C@H](C)[C@H](NC(=O)[C@H](Cc1ccc(O)cc1)NC(=O)[C@@H](NC(=O)[C@H](CCCCN)NC(=O)CNC)C(C)C)C(=O)N[C@@H](Cc1c[nH]cn1)C(=O)N1CCC[C@H]1C(=O)N[C@H](C)C(=O)O) [SEQ ID NO: 49] |
|  | 27 nM | 91.7% | > 1e-05 M | 30 nM | 53.3% | 10.2% | 26 nM | [Sar]RVYRHP-NH2 (N-terminus assumed; SMILES CNCC(=O)N[C@@H](CCCNC(=N)N)C(=O)N[C@H](C(=O)N[C@@H](Cc1ccc(O)cc1)C(=O)N[C@@H](CCCNC(=N)N)C(=O)N[C@@H](Cc1c[nH]cn1)C(=O)N1CCC[C@H]1C(N)=O)C(C)C) [SEQ ID NO: 45] |
| > 1e-05 M | 270 nM | 85.6% | > 1e-05 M | 680 nM | 56.8% |  |  | [Sar]RVYIKP[dA]-OH (N-terminus assumed; SMILES CC[C@H](C)[C@H](NC(=O)[C@H](Cc1ccc(O)cc1)NC(=O)[C@@H](NC(=O)[C@H](CCCNC(=N)N)NC(=O)CNC)C(C)C)C(=O)N[C@@H](CCCCN)C(=O)N1CCC[C@H]1C(=O)N[C@H](C)C(=O)O) [SEQ ID NO: 50] |
| > 1e-05 M | 2100 nM | 72.2% | > 1e-05 M | 4800 nM | 80.5% |  |  | ARVYIHPA (NM-D-Ala (N-methyl-D-alanine) at 1) [SEQ ID NO: 47] |
|  |  |  | > 1e-05 M |  |  | 14.6% | 8.2 nM | ARVYIHPA (NMAla (N-methyl-L-alanine) at 1; D-Ala at 8) [SEQ ID NO: 44] |
|  |  | 42.1% | > 1e-05 M | 1800 nM | 48.1% | 13.9% |  | XRVFIHPA (Sar (sarcosine) at 1; D-Ala at 8) [SEQ ID NO: 48] |
| > 1e-05 M | 110 nM | 5.8% | > 1e-05 M | 330 nM | 20.2% |  |  | XRVYIHP (Sar (sarcosine) at 1; D-Pro at 7; C-terminal amide (NH2)) [SEQ ID NO: 51] |
| > 1e-05 M | 63 nM |  | > 1e-05 M |  |  |  |  | ARVYIHPA (NMAla (N-methyl-L-alanine) at 1; D-Ala at 8) [SEQ ID NO: 46] |

Source: patent US20100184701A1 (TREVENA, published 2010)
